Results published in patent US20090130105A1 (Biogen, published 2009).

B1: M13-C06 antibody (antibody, V domains shown)
VH: EVQLLESGGGLVQPGGSLRLSCAASGFTFSIYRMQWVRQAPGKGLEWVSGISPSGGTTWYADSVKGRFTISRDNSKNTLYLQMNSLRAEDTAVYYCARWSGGSGYAFDIWGQGTMVTVSS
VL: DIQMTQSPLSLSASVGDRVTITCQASRDIRNYLNWYQQKPGKAPKLLIYDASSLQTGVPSRFGGSGSGTDFSFTIGSLQPEDIATYYCQQFDSLPHTFGQGTKLEIK
notes: Fully human full-length antibody (ATCC PTA-7444); also called M13.C06.G4.P.agly; M13-C06.G4P.agly
B2: M13-C06 Fab (Fab, V domains shown)
VH: EVQLLESGGGLVQPGGSLRLSCAASGFTFSIYRMQWVRQAPGKGLEWVSGISPSGGTTWYADSVKGRFTISRDNSKNTLYLQMNSLRAEDTAVYYCARWSGGSGYAFDIWGQGTMVTVSS
VL: DIQMTQSPLSLSASVGDRVTITCQASRDIRNYLNWYQQKPGKAPKLLIYDASSLQTGVPSRFGGSGSGTDFSFTIGSLQPEDIATYYCQQFDSLPHTFGQGTKLEIK
notes: Fab made by enzymatic digestion of the IgG

Experiments:
human IGF-1R(1-903)-Fc = molecular target: T1, human IGF-1R(1-903)-Fc (human, UniProt P08069 31-933); assay: ELISA, blocking of IGF-2 His (640 nM by the table head) on biotinylated hIGF-1R-Fc
T1 construct: also called hIGF-1R-Fc; SDWT; not shown: human IgG1 Fc, C-terminal tag
T1 sequence (P08069 31-933): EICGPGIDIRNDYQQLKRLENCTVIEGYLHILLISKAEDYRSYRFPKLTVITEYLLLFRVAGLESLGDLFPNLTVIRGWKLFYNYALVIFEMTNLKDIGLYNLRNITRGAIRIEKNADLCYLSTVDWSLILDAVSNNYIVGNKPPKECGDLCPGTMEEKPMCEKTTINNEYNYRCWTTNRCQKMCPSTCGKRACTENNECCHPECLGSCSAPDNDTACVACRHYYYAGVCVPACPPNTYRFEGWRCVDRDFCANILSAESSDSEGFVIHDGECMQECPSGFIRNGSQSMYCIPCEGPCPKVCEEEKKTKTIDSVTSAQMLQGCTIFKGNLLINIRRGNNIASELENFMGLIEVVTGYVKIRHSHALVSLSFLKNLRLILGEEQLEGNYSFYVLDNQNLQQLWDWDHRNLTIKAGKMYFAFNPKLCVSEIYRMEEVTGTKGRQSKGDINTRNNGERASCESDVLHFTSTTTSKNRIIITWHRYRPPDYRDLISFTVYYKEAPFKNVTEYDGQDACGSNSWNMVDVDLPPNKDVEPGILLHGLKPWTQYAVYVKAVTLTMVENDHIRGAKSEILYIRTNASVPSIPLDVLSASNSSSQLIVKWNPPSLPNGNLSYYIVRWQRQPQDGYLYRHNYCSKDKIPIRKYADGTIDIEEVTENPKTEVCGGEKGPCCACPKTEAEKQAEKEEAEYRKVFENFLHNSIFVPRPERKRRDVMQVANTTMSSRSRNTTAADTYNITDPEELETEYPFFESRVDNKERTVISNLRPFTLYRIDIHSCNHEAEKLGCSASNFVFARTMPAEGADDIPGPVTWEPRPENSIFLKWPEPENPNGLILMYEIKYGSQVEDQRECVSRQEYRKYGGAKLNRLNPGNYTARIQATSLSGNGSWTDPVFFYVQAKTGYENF

[1] = molecular target: T2, hIGF-1R-Fc mutant SD108 (H480E) (human, UniProt P08069 31-933); assay: SPR, Fab over captured mutant
T2 construct: not shown: human IgG1 Fc, C-terminal tag
T2 sequence (P08069 31-933 H510E): as the sequence (P08069 31-933) above, with H480E counted along it

[2] = molecular target: T3, hIGF-1R-Fc mutant SD109 (Y482A, R483W) (human, UniProt P08069 31-933); assay: SPR, Fab over captured mutant
T3 construct: not shown: human IgG1 Fc, C-terminal tag
T3 sequence (P08069 31-933 Y512A/R513W): as the sequence (P08069 31-933) above, with Y482A, R483W counted along it

[3] = molecular target: T4, hIGF-1R-Fc mutant SD102 (E459A, S460A) (human, UniProt P08069 31-933); assay: SPR, Fab over captured mutant
T4 construct: not shown: human IgG1 Fc, C-terminal tag
T4 sequence (P08069 31-933 E489A/S490A): as the sequence (P08069 31-933) above, with E459A, S460A counted along it

[4] = molecular target: T5, hIGF-1R-Fc mutant SD015 (H464E) (human, UniProt P08069 31-933); assay: SPR (Biacore 3000): SD015 captured on immobilized M13-C06 surface, M13-C06 (Fab according to paragraph 695) injected at 0, 1, 3, 10 nM
T5 construct: not shown: human IgG1 Fc, C-terminal tag
T5 sequence (P08069 31-933 H494E): as the sequence (P08069 31-933) above, with H464E counted along it
Protocol: After, completion of the receptor-Fc loading step, flow rates were elevated to 5 μl/min. […] At the end of each sensorgram, the flow rate was elevated to 30 μl/min and the chip surface was regenerated by 2×10 μL injections of 0.1 M glycine, pH 2.

Row | Binder | IC50 (human IGF-1R(1-903)-Fc) [nM] | binding result [1] | binding result [2] | binding result [3] | binding result [4]
1 | B1 | 1.9 | – | – | – | –
2 | B2 | – | no binding (tested: up to 10 nM Fab) | no binding (tested: up to 10 nM Fab) | no binding (tested: up to 10 nM Fab) | no binding (tested: 10 nM)
